± gives the uncertainty stated by the source.
B1: Androgen receptor, residues 557 to 632; numbered along this chain, P10275 (parent)
chain: QKTCLICGDEASGCHYGALTCGSCKVFFKRAAEGKQKYLCASRNDCTIDKFRRKNCPSCRLRKCYEAGMTLGARKL

Variants of: B1
Assay: abundance fitness (aPCA) (normalised: wild type 0, dead -1); higher = more abundant; growth selection in yeast, the domain comes from the species named
Conditions: Homo sapiens

Point of comparison: QKTCLICGDEASGCHYGALTCGSCKVFFKRAAEGKQDYLCASRNDCTIDKFRRKNCPSCRLRKCYEAGMTLGARKL, abundance fitness -0.009 ± 0.1. Against it:
- QKTCLICGDEASGCHYGALTCGSCKVFFKRAAEGKKKYLCASRNDCTIDKFRRKNCPSCRLRKCYEAGMTLGARKL — within error, 0.013 ± 0.08
- QKTCLICGDEASGCHYGALTCGSCKVFFKRAAEGKDKYLCASRNDCTIDKFRRKNCPSCRLRKCYEAGMTLGARKL — within error, 0.048 ± 0.074
- QKTCLICGDEASGCHYGALTCGSCKVFFKRAAEGKEKYLCASRNDCTIDKFRRKNCPSCRLRKCYEAGMTLGARKL — within error, 0.031 ± 0.063
- QKTCLICGDEASGCHYGALTCGSCKVFFKRAAEGKWKYLCASRNDCTIDKFRRKNCPSCRLRKCYEAGMTLGARKL — lower, -0.251 ± 0.065
- QKTCLICGDEASGCHYGALTCGSCKVFFKRAAEGKPKYLCASRNDCTIDKFRRKNCPSCRLRKCYEAGMTLGARKL — within error, -0.006 ± 0.052
- QKTCLICGDEASGCHYGALTCGSCKVFFKRAAEGKAKYLCASRNDCTIDKFRRKNCPSCRLRKCYEAGMTLGARKL — within error, -0.019 ± 0.047
- QKTCLICGDEASGCHYGALTCGSCKVFFKRAAEGKQVYLCASRNDCTIDKFRRKNCPSCRLRKCYEAGMTLGARKL — within error, -0.058 ± 0.046
- QKTCLICGDEASGCHYGALTCGSCKVFFKRAAEGKQAYLCASRNDCTIDKFRRKNCPSCRLRKCYEAGMTLGARKL — within error, 0.038 ± 0.045
- QKTCLICGDEASGCHYGALTCGSCKVFFKRAAEGKQRYLCASRNDCTIDKFRRKNCPSCRLRKCYEAGMTLGARKL — within error, -0.054 ± 0.045
- QKTCLICGDEASGCHYGALTCGSCKVFFKRAAEGKQLYLCASRNDCTIDKFRRKNCPSCRLRKCYEAGMTLGARKL — within error, -0.126 ± 0.055
- QKTCLICGDEASGCHYGALTCGSCKVFFKRAAEGKQIYLCASRNDCTIDKFRRKNCPSCRLRKCYEAGMTLGARKL — within error, -0.091 ± 0.15
- QKTCLICGDEASGCHYGALTCGSCKVFFKRAAEGKQQYLCASRNDCTIDKFRRKNCPSCRLRKCYEAGMTLGARKL — within error, 0.079 ± 0.081
- QKTCLICGDEASGCHYGALTCGSCKVFFKRAAEGKQPYLCASRNDCTIDKFRRKNCPSCRLRKCYEAGMTLGARKL — within error, 0.006 ± 0.088
- QKTCLICGDEASGCHYGALTCGSCKVFFKRAAEGKQNYLCASRNDCTIDKFRRKNCPSCRLRKCYEAGMTLGARKL — within error, 0.073 ± 0.15
- QKTCLICGDEASGCHYGALTCGSCKVFFKRAAEGKQSYLCASRNDCTIDKFRRKNCPSCRLRKCYEAGMTLGARKL — within error, -0.086 ± 0.062
- QKTCLICGDEASGCHYGALTCGSCKVFFKRAAEGKQTYLCASRNDCTIDKFRRKNCPSCRLRKCYEAGMTLGARKL — within error, 0.01 ± 0.077
- QKTCLICGDEASGCHYGALTCGSCKVFFKRAAEGKQYYLCASRNDCTIDKFRRKNCPSCRLRKCYEAGMTLGARKL — within error, -0.178 ± 0.12
- QKTCLICGDEASGCHYGALTCGSCKVFFKRAAEGKQCYLCASRNDCTIDKFRRKNCPSCRLRKCYEAGMTLGARKL — within error, -0.185 ± 0.093
- QKTCLICGDEASGCHYGALTCGSCKVFFKRAAEGKQFYLCASRNDCTIDKFRRKNCPSCRLRKCYEAGMTLGARKL — within error, -0.331 ± 0.26
- QKTCLICGDEASGCHYGALTCGSCKVFFKRAAEGKQWYLCASRNDCTIDKFRRKNCPSCRLRKCYEAGMTLGARKL — within error, -0.168 ± 0.071
- QKTCLICGDEASGCHYGALTCGSCKVFFKRAAEGKQHYLCASRNDCTIDKFRRKNCPSCRLRKCYEAGMTLGARKL — within error, 0.168 ± 0.12
- QKTCLICGDEASGCHYGALTCGSCKVFFKRAAEGKQMYLCASRNDCTIDKFRRKNCPSCRLRKCYEAGMTLGARKL — within error, -0.131 ± 0.1
- QKTCLICGDEASGCHYGALTCGSCKVFFKRAAEGKQGYLCASRNDCTIDKFRRKNCPSCRLRKCYEAGMTLGARKL — within error, -0.08 ± 0.039
- QKTCLICGDEASGCHYGALTCGSCKVFFKRAAEGTQKYLCASRNDCTIDKFRRKNCPSCRLRKCYEAGMTLGARKL — within error, 0.039 ± 0.053
- QKTCLICGDEASGCHYGALTCGSCKVFFKRAAEGIQKYLCASRNDCTIDKFRRKNCPSCRLRKCYEAGMTLGARKL — within error, -0.09 ± 0.058
- QKTCLICGDEASGCHYGALTCGSCKVFFKRAAEGWQKYLCASRNDCTIDKFRRKNCPSCRLRKCYEAGMTLGARKL — lower, -0.213 ± 0.082
- QKTCLICGDEASGCHYGALTCGSCKVFFKRAAEGLQKYLCASRNDCTIDKFRRKNCPSCRLRKCYEAGMTLGARKL — within error, -0.135 ± 0.044
- QKTCLICGDEASGCHYGALTCGSCKVFFKRAAEGRQKYLCASRNDCTIDKFRRKNCPSCRLRKCYEAGMTLGARKL — within error, 0.004 ± 0.045
- QKTCLICGDEASGCHYGALTCGSCKVFFKRAAEGYQKYLCASRNDCTIDKFRRKNCPSCRLRKCYEAGMTLGARKL — within error, -0.034 ± 0.069
- QKTCLICGDEASGCHYGALTCGSCKVFFKRAAEGHQKYLCASRNDCTIDKFRRKNCPSCRLRKCYEAGMTLGARKL — within error, -0.044 ± 0.075
- QKTCLICGDEASGCHYGALTCGSCKVFFKRAAEGSQKYLCASRNDCTIDKFRRKNCPSCRLRKCYEAGMTLGARKL — within error, -0.031 ± 0.044
- QKTCLICGDEASGCHYGALTCGSCKVFFKRAAEGMQKYLCASRNDCTIDKFRRKNCPSCRLRKCYEAGMTLGARKL — within error, 0.018 ± 0.07
- QKTCLICGDEASGCHYGALTCGSCKVFFKRAAEGQQKYLCASRNDCTIDKFRRKNCPSCRLRKCYEAGMTLGARKL — within error, 0.007 ± 0.068
- QKTCLICGDEASGCHYGALTCGSCKVFFKRAAEGPQKYLCASRNDCTIDKFRRKNCPSCRLRKCYEAGMTLGARKL — within error, 0.074 ± 0.068
- QKTCLICGDEASGCHYGALTCGSCKVFFKRAAEGNQKYLCASRNDCTIDKFRRKNCPSCRLRKCYEAGMTLGARKL — within error, -0.093 ± 0.064
